B1: αβ heterodimer of HsIDH3 (mutant form αMβ) (Homo sapiens; P50213:Q166A) (protein)
chain 1: TGGVQTVTLIPGDGIGPEISAAVMKIFDAAKAPIQWEERNVTAIQGPGGKWMIPSEAKESMDKNKMGLKGPLKTPIAAGHPSMNLLLRKTFDLYANVRPCVSIEGYKTPYTDVNIVTIRENTEGEYSGIEHVIVDGVVASIKLITEGASKRIAEFAFEYARNNHRSNVTAVHKANIMRMSDGLFLQKCREVAESCKDIKFNEMYLDTVCLNMVQDPSQFDVLVMPNLYGDILSDLCAGLIGGLGVTPSGNIGANGVAIFESVHGTAPDIAGKDMANPTALLLSAVMMLRHMGLFDHAARIEAACFATIKDGKSLTKDLGGNAKCSDFTEEICRRVKDLD
chain 2: not shown
notes: coexpressed alpha and beta-TEV-His6 (pQlinkN), E. coli BL21(DE3) Codon-Plus, His6 tag cleaved with TEV; 1:1 heterodimer, mutant is heterotetramer (αMβ)2 of 131-149 kDa
B2: αγ heterodimer of HsIDH3 (mutant form αMγ) (Homo sapiens; P50213:Q166A) (protein)
chain 1: TGGVQTVTLIPGDGIGPEISAAVMKIFDAAKAPIQWEERNVTAIQGPGGKWMIPSEAKESMDKNKMGLKGPLKTPIAAGHPSMNLLLRKTFDLYANVRPCVSIEGYKTPYTDVNIVTIRENTEGEYSGIEHVIVDGVVASIKLITEGASKRIAEFAFEYARNNHRSNVTAVHKANIMRMSDGLFLQKCREVAESCKDIKFNEMYLDTVCLNMVQDPSQFDVLVMPNLYGDILSDLCAGLIGGLGVTPSGNIGANGVAIFESVHGTAPDIAGKDMANPTALLLSAVMMLRHMGLFDHAARIEAACFATIKDGKSLTKDLGGNAKCSDFTEEICRRVKDLD
chain 2: FSEQTIPPSAKYGGRHTVTMIPGDGIGPELMLHVKSVFRHACVPVDFEEVHVSSNADEEDIRNAIMAIRRNRVALKGNIETNHNLPPSHKSRNNILRTSLDLYANVIHCKSLPGVVTRHKDIDILIVRENTEGEYSSLEHESVAGVVESLKIITKAKSLRIAEYAFKLAQESGRKKVTAVHKANIMKLGDGLFLQCCREVAARYPQITFENMIVDNTTMQLVSRPQQFDVMVMPNLYGNIVNNVCAGLVGGPGLVAGANYGHVYAVFETATRNTGKSIANKNIANPTATLLASCMMLDHLKLHSYATSIRKAVLASMDNENMHTPDIGGQGTTSEAIQDVIRHIRVINGRAVEA
notes: coexpressed alpha and gamma-TEV-His6 (pQlinkN), E. coli BL21(DE3) Codon-Plus, His6 tag cleaved with TEV; 1:1 heterodimer, mutant is heterotetramer (αMγ)2 of 131-149 kDa

Columns and labels:
[1] = substrate: O=C(O)C[C@H](C(=O)O)[C@@H](O)C(=O)O; assay: NADH production, Hill fit; type: biochemical, Homo sapiens; conditions: no activators, 3.2 mM NAD, 2 mM MgCl2, 33 mM Tris-acetate pH 7.4
Description: NADH production, Hill fit on αβ heterodimer of HsIDH3 (mutant form αMβ)

[2] = substrate: O=C(O)C[C@H](C(=O)O)[C@@H](O)C(=O)O; assay: NADH production, Hill fit; type: biochemical, Homo sapiens; conditions: no activators, 3.2 mM NAD, 2 mM MgCl2, 33 mM Tris-acetate pH 7.4; remark: listed apart in the source
Description: NADH production, Hill fit on αγ heterodimer of HsIDH3 (mutant form αMγ)

Protein	K0.5 [1] [mM]	Vmax [1] [µmol/min/mg]	K0.5 [2] [mM]	Vmax [2] [µmol/min/mg]
B1	0.17 ± 0.02	18	–	–
B2	–	–	0.26 ± 0.11	25.5
